Measurements taken from PMC6989304.

Biological target: Pinhead-HA (secreted, in conditioned medium of HEK293T cells) (zebrafish)
Assay: reducing and non-reducing SDS-PAGE with immunoblot

stoichiometry N: 2
Substance: Pinhead-HA (secreted, in conditioned medium of HEK293T cells) (ligand)
